Key:
[1] = molecular target: T1, IL-1R3 (human, UniProt Q9NPH3 21-570); experiment: cell-based or functional assay
T1 sequence (looked up): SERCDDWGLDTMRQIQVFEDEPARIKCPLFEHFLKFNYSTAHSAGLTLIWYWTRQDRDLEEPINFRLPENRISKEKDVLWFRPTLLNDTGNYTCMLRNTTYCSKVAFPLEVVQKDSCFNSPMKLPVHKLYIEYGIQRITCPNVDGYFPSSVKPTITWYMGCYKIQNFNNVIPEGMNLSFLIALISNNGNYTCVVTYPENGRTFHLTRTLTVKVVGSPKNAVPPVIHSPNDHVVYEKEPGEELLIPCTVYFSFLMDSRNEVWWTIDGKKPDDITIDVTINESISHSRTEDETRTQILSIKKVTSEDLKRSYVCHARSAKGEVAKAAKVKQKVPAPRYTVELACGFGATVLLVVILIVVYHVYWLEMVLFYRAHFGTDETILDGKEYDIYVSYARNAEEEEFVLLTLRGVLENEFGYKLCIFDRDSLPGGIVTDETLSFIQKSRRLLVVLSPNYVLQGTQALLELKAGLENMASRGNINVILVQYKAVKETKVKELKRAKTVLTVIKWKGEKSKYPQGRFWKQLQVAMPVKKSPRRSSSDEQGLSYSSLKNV

[2] = molecular target: T2, FcgammaRIIIa (V158) expressed on Jurkat effector cells (UniProt P08637 17-254, limits assumed); experiment: cell based ADCC reporter gene assay, Jurkat FcgammaRIIIa (V158) effector cells with CHO IL1R3 target cells
T2 construct: whole, on cells; also called FcγRIII; Fc receptor of the effector cells
Experimental: The anti-IL-1R3 antibody in IgG1-LALA and IgG4-P-FALA format was tested for any ADCC activity using a reporter gene assay (iLite ADCC Bioassay #BM5001, SVAR Life Sciences, Malmö). This assay uses reporter-gene-carrying effector cells (Jurkat cells expression FcgammaRIIIa (V158)) that are used in conjunction with target cells that express the specific antigen at constant high levels (i.e. CHO ILIR3 target cells). Binding of the antibody to the target cell and binding of the effector cell to the Fc receptor of the antibody results in expression of the firefly luciferase reporter gene in the effector cell. The promoter of the firefly luciferase in the effector cells includes binding sites for NfkB, AP1, NFAT, CRE and STAT and thus includes the five principal transcription factors of the FcγRIII signal transduction pathway. The effector cells further comprise Renilla luciferase for normalization purposes.

IL8 release_hIL1b & hIL33 & IL36g, rel IC50 in nM [1]: 8.5 nM
IL8 release_hIL1b & hIL36g, rel IC50 in nM [1]: 2.38 nM
IL8 release_hIL1 beta, rel IC50 in nM [1]: 13.4 nM
IL8 release_hIL33, rel IC50 in nM [1]: 2.34 nM
IL8 release_hIL36g, rel IC50 in nM [1]: 0.45 nM
binding result [2]: no binding
B1: anti-IL-1R3-IgG4-P-FALA (antibody)
heavy: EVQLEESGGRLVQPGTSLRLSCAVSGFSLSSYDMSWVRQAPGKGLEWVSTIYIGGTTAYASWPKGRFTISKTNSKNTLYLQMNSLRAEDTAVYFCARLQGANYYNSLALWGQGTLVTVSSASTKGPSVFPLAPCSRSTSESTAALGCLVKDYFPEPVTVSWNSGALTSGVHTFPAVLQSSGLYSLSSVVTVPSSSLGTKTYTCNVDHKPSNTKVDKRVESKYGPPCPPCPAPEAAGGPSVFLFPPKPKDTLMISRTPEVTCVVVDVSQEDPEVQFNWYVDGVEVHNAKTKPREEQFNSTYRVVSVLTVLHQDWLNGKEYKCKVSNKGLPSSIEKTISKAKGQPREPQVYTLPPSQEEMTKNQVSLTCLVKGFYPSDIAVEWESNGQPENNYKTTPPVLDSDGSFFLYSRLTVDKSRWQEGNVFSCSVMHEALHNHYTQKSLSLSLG
light: DVQMTQSPSSLSASVGDRVTITCQASQSIYSFLSWYQQKPGQAPKLLIYAASDLESGVPSRFSGSGSGTDFTLTISSLQPEDFATYYCQSNYIIDYGAFGQGTKVVIKRTVAAPSVFIFPPSDEQLKSGTASVVCLLNNFYPREAKVQWKVDNALQSGNSQESVTEQDSKDSTYSLSSTLTLSKADYEKHKVYACEVTHQGLSSPVTKSFNRGEC
notes: Humanized antibody, human IgG4 backbone with S228P, F234A, L235A (EU) in the Fc region; also called anti-IL-1R3 IgG4-P-FALA Ab; aIL-1R3-IgG4; copies: 2 + 2

Reference: patent publication US20250019452A1 (Sanofi, published 2025)
